Data on 5 molecules can be found in patent publication US20250289871A1 (AstraZeneca / MedImmune, published 2025).

Some results are limits rather than exact numbers.

The target of assay [1] is T1, SARS-CoV-2 BA.2.12.1 spike protein (authentic virus) (SARS-CoV-2, UniProt P0DTC2 14-1273). In words: cell-based or functional assay.
Assay [2] deals with D614G spike protein (pseudovirus) (SARS-CoV-2). In words: cell-based or functional assay.
Assay [3] has as its target BA1.1 spike protein (pseudovirus) (SARS-CoV-2). The assay can be described thus: cell-based or functional assay.
In assay [4] the target is BA.2 spike protein (pseudovirus) (SARS-CoV-2). In words: cell-based or functional assay.
Assay [5] deals with Omicron (BA.1) spike protein (pseudovirus) (SARS-CoV-2). The assay can be described thus: cell-based or functional assay.
Assay [6] deals with Delta spike protein (pseudovirus) (SARS-CoV-2). In words: cell-based or functional assay.
The target in assay [7] is SARS-CoV-2 spike RBD point mutant F486A (SARS-CoV-2, UniProt P0DTC2 334-526).
Assay [8] concerns the target SARS-CoV-2 spike RBD point mutant K444A (SARS-CoV-2, UniProt P0DTC2 334-526).
Assay [9] has as its target BA.2.12.1 spike protein (pseudovirus) (SARS-CoV-2). The assay can be described thus: cell-based or functional assay.
In assay [10] the target is SARS-CoV-2 BA.1.1 spike protein (authentic virus) (SARS-CoV-2, UniProt P0DTC2 14-1273). In words: cell-based or functional assay.
The target in assay [11] is SARS-CoV-2 Alpha spike protein (authentic virus) (SARS-CoV-2, UniProt P0DTC2 14-1273). In words: cell-based or functional assay.
Assay [12] has as its target T1, SARS-CoV-2 BA.2.12.1 spike protein …. The assay can be described thus: cell-based or functional assay. This is another data set of the same source.
Assay [13] has as its target SARS-CoV-2 BA.2 spike protein (authentic virus) (SARS-CoV-2, UniProt P0DTC2 14-1273). The assay can be described thus: cell-based or functional assay.
The target in assay [14] is SARS-CoV-2 BA.1 spike protein (authentic virus) (SARS-CoV-2, UniProt P0DTC2 14-1273). In words: cell-based or functional assay.
Assay [15] has as its target SARS-CoV-2 BA.5 spike protein (authentic virus) (SARS-CoV-2, UniProt P0DTC2 14-1273). The assay can be described thus: cell-based or functional assay.
Assay [16] deals with SARS-CoV-2 D614G spike protein (authentic virus) (SARS-CoV-2, UniProt P0DTC2 14-1273). In words: cell-based or functional assay.

B1: RQ33 (TM-YTE) (antibody, V domains shown)
VH: QVQLQESGPGLVKPSETLSLTCTVFGGSITSSNHYWVWIRQPPGKGLEWIGSMYYSGSTAYNPSLTNRVTISVDTSKNQFSLKLSSVTAADTAVYYCARQIGPKRPSQVADWFDPWGQGTLVTVSS
VL: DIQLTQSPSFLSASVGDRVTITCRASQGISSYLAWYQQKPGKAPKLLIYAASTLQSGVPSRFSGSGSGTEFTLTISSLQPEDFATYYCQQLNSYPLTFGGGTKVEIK
A word on the Kd: it is the concentration at which binding is half-saturated. A high value points to lower affinity. As to B1, in [1], the “IC50 (read off the curve), FRNT, authentic BA.2.12.1 virus” value is about 0.5 mg/L. The “EC50, pseudovirus neutralization” value in assay [2] turned out to be 0.191 mg/L; in assay [3], 0.0031 mg/L; in [4], 0.0797 mg/L; in assay [5] it was 0.0045 mg/L; in assay [6], 0.205 mg/L. Also, the Kd worked out at 3.28 nM in assay [7] and 3.13 nM in [8]. Also, the “IC50 (read off the curve), pseudovirus with BA.2.12.1 spike” value in assay [9] was about 0.05 mg/L.

B2: RQ41 (TM-YTE) (antibody, V domains shown)
VH: EVQLVESGGGLIQPGGSLRLSCAASEIIVSRNYMSWVRQAPGKGLEWVSVIYSGGSTFYADSVKGRFTISRDNSKNTLYLQMNSLRAEDTAVYYCARDLDVVGGTDYWGQGTLVTVSS
VL: not shown
As to B2, the “EC50, pseudovirus neutralization” value in [2] was determined as 0.011 mg/L; in [3] it was 0.0039 mg/L; in assay [4], 0.0126 mg/L; in assay [5], 0.0062 mg/L; in assay [6], 0.0182 mg/L.

B3: RQ43-GL-H-LO1 (TM-YTE) (antibody, V domains shown)
VH: EVQLVESGGGLVQPGRSLRLSCAASGFPFDDYAIHWVRLAPGKGLEWVSSISWDSGSIGYADSVKGRFTISRDNAKNSLYLQMNSLRAEDTALYYCAKGAFPGYSSGWYYGLEVWGQGTTVTVSS
VL: QSVVTQPPSASGSLGQSVTISCTGTSSDVGGYNYVSWYQQHPGKAPKLMIFEVSKRPSGVPDRFSGSKSGNTASLTVSGLQAEDEADYYCSSYAGNKGVFGGGTKLTVL
On to B3, for which the “IC50 (read off the curve), pseudovirus with BA.2.12.1 spike” value in assay [9] was about 0.008 mg/L. For the same molecule, the “Authentic Virus Neutralization IC50” value is 0.007 mg/L in assay [10]; 0.06 mg/L in [11]; 0.028 mg/L in [12]; 0.031 mg/L in assay [13]; 0.011 mg/L in [14]; 0.017 mg/L in [15]. In addition, the “Authentic Virus Neutralization IC50” value in assay [16] was 0.099 mg/L.

B4: RQ43 (TM-YTE) (antibody, V domains shown)
VH: EVQLLETGGGLVQPGRSLRLSCAASGFPFDDYAIHWVRLAPGKGLEWVSSISWDSGSIGYADSVKGRFTISRDNAKNSLYLQMNSLRAEDTALYYCAKGAFPGYSSGWYYGLDVWGQGATVTVSS
VL: QSVVTQPPSASGSLGQSVTISCTGTSSDVGGYNYVSWYQQHPGKAPKLMIFEVSKRPSGVPDRFSGSKSGNTASLTVSGLQAEDEADYYCSSYAGNKGVFGGGTKLTVL
As for B4, the “EC50, pseudovirus neutralization” value amounted to 0.0158 mg/L in assay [2]; 0.006 mg/L in assay [3]; 0.0105 mg/L in [4]; 0.0078 mg/L in assay [5]; 0.0259 mg/L in assay [6]. Moreover, the Kd in assay [7] and in [8] was under 0.001 nM in each case.

B5: RQ40 (TM-YTE) (antibody, V domains shown)
VH: EVQLVESGAEVKKPGSSVKVSCKASGGTFSSYAINWVRQAPGQGLEWMGGIIPIFRTPHYAQKFQGRVTITADESTGTAYMELSSLRSEDTAVYYCASPSCGGDCPQYLKSSKLDWYFDLWGRGTLVTVSS
VL: VIWMTQSPGTLSLSPGERATLSCRASQSVSSTYLAWYQQKPGQAPRLLIYGASSRATGIPDRFSGSGSGTDFTLTISRLEPEDFAVYYCQHYGSSPLTFGQGTRLEIK
Turning to B5, the “EC50, pseudovirus neutralization” value in [2] came out at 0.0099 mg/L; in [3] it was 0.0042 mg/L; in assay [4], 0.007 mg/L; in assay [5], 0.0064 mg/L; in [6], 0.0112 mg/L. In addition, the results for the Kd in assay [7] and in assay [8] were 47.1 nM and under 0.001 nM, respectively.
